Assay results taken from the DeepSol protein solubility set.

Assay: soluble on expression in E. coli; label from the status in PepcDB or PDB records
With “MGSDKIHHHHHHMKIRYGIIGVGGHGKNRHLIPLIKLKNKVEIVAVADVKKERCEEVSSQFNIKCYLDYMEMVEKESLNAVSIVTPTGLHSRIAINVLNKGVNVLVDKPLGSNLEEVKEVVNTARNKGLKLMVGYWSRFSPALQYGKEIIHNGLLGEPYVAYGYLVRRRGIPGIPTFIDKTLSGGRGALLDIGCYLIDNLLSLLKFRKPISVMGKVYTKFGNVKEEVKFNWGSWDPENFSLDDYAVGLVKLEGDVSLILEVGWSANVSHVEEKSYVRILGDKGGIEGSGHEAIVDISFHSRTENFLTDTKPVLRKVDPYFEMINAFVDSILTDREPPITGEESVTLHSIIDGIYKSSTEDKEVKISL” the “soluble on expression in E. coli” value was “not soluble”.
For “MGSDKIHHHHHHMKITFGQQTTKVKQLADKISFDISMGVYKSGDSLPSINQLSQAYEVSRDTVFKAFLDLKERGIIDSTPGKGYYVVGRLKNVLLLLDEYSPFKYALYNSFVKRLSIRYKVDLLFHQYNERLFNTIIRESLGRYNKYIVMNFDNEKLSPNLYKINPSKLLLLDFGKFEKEGFSYVCQDFDQGFYNALFQLADRLRKYQKLVFVLVDDSMHPRSSRDFFERFCADQHLGCEVVSDIEGLQVRRGEVYIAIRQIDVVSIIKKSRVEGLQCGVDFGLIGYNDTPAYEVIDQGITALSVDWEKMGDKAAEFVLQGKTIQDYLPTEVRLRASL”, the “soluble on expression in E. coli” value was “not soluble”.
With “MGSDKIHHHHHHMKITLNSVSFRYNGDYVLKDVNAEFETGKIYVVVGKNGSGKTTLLKILAGLLEAEGEIFLDGSPADPFLLRKNVGYVFQNPSSQIIGATVEEDVAFSLEIMGLDESEMRKRIKKVLELVGLSGLEKEDPLNLSGGQKQRLAIASMLARDTRFLALDEPVSMLDPPSQREIFQVLESLKNEGKGIILVTHELEYLDDMDFILHISNGTIDFCGSWEEFVEREFDDVEIPFKWKLWKKCGKINLWEDRYENSGNQRRRDTV” the “soluble on expression in E. coli” value was “not soluble”.
With “MGSDKIHHHHHHMKITVLYSGNYGERVLNTILEKFAQNIVSIHEIPENLPEYIDDVSEYVPENLKESDLIISVGLFGDINLIVCDIAKKTNAKSIIIESHSPKQVTKGLKSEISDSLNEIKIVFPKPFCSLKPVGDTYIDEFAKYFGSPEIEIIGETIVKSVIVKRNAPCGSTKYVAENLTGYSLNEVEFESGNKLHNYPCLASMDVDNEIGDTILHLAGYKIKEAVKKSLKFSNKILTVTGDCKGFECGFKCYKICPVVKMGENAVEIEKTHVNINNLFCGCCMKCVDICPFNAIKVLNYKI” the “soluble on expression in E. coli” value was “not soluble”.
With “MGSDKIHHHHHHMKIVFMGTPEFAAAHLKEIVESGNKVAGVFSQPDRPKGRGQKVEPTPVKTVATNYGIPVFQPEKINSDEGFEKLSELSPDIIVVVAFGKLLKSGVINLPTIGCFNVHASLLPKYRGAAPIQRAIENGETKTGITIFKIDEGMDTGAIALKRELEIHPSDSFGSLYLKLAELGKKTLVHFLERVKEGRLELAPQDGIPSFAPKIQPEDLVISDLSDAAKVVNKIRAYDPQPGARVSVEGRISKVFGASLKCRNEGKGIVGEIVKIDDRGMIVSCGAENVIISLVQFPGKKPMRPKDALSGRLISEGIILGG” the “soluble on expression in E. coli” value was “not soluble”.
In the case of “MGSDKIHHHHHHMKIVHTADWHLGKILNGKQLLEDQKYILTQFKQHMEKEQPDLIVIAGDLYDTSYPSKEAIGLLEETIEYLNIELKIPIIMISGNHDGRERLNYGSKWFENNQLYIRTQLENIDDPIELSGVQFFTLPFATVSEVQNYFKDKQIETYQQALNECLEQMSSSIDNNKVNILIGHLTIEGGKTSDSERPLTIGTVESVDMHSFRLFDYVMLGHLHHPFSINNSFIKYSGSILQYSFSEVNQSKGYRVLDIENNQLLNETFVPLKPLRELEVIEGDYEDIIQERIKVKNKNNYFHFKLTNVSHITDPMMKLKQIYPNILALSNVVFDHSENFSHVEIKKQDDQTIIENFYKNMTDQHLSQVQSDKIKHLLSFILDREG”, the “soluble on expression in E. coli” value is reported as “not soluble”.
For “MGSDKIHHHHHHMKIVKNFRDINTLIPGWGDKMSEVSIFDIWKGTKFGESVLMEFDSLSFSPLGVYSLAYWARMKGFKVSVVDVLDTLKIYLSYAKMIGLGTSIANDIEVIKLGGRIDSGNVSTRIPITEEKVMEKELMKLYPHEDNEKTIVIVLGIEKFLALWCKLLPDILSFLNFMLSFVGEEWMKSFYFINVDLMKDFSFPALSMLEELSTTVVEISKRGPVLHYIVRKALNPEIDSLEGEIHIKELISEIENPIES”, the “soluble on expression in E. coli” value was “not soluble”.
With “MGSDKIHHHHHHMKKAMVIINPTSGGEKALDYKEKLENKAKEYFEYVETKITEKALDATHFAEEASREQYDAVVVFGGDGTVNEVISGIDERDYIPKLGIIPGGTGNLITKLLEINQDIDGAIDELDFDLTNKIDIGKANDNYFGYIFSIGSLPEAIHNVEIEDKTKFGILTYAVNTMKSVMTDQVFNIKVETENGNYVGEASHVLVLLTNYFADKKIFEENKDGYANILILKDASIFSKLSVIPDLLKGDVVANDNIEYIKARNIKISSDSELESDVDGDKSDNLPVEIKVLAQRVEVFSKPKED” the “soluble on expression in E. coli” value was “not soluble”.
For “MGSDKIHHHHHHMKKHKIGIYEKALPKNITWQERLSLAKACGFEFIEMSIDESNDRLSRLNWTKSERIALHQSIIQSGITIPSMCLSAHRRFPFGSKDKKIRQKSFEIMEKAIDLSVNLGIRTIQLAGYDVYYEKQDEETIKYFQEGIEFAVTLAASAQVTLAVEIMDTPFMSSISRWKKWDTIINSPWFTVYPDIGNLSAWNNNIEEELTLGIDKISAIHLKDTYPVTETSKGQFRDVPFGQGCVDFVHFFSLLKKLNYRGAFLIEMWTEKNEEPLLEIIQARKWIVQQMEKAGLLC”, the “soluble on expression in E. coli” value was “not soluble”.
For “MGSDKIHHHHHHMKKKYVTIRDIAEKAGVSINTVSRALNNKPDISEETRRKILKIAQELGYVKNATASSLRSKQTNIVGVIIADSANPFYAEVLKGIEAASRKYGYQIMLMNTERIYENEEKAIEVLLQRRVDGLLITPVQDRSDDIKTLIERKVPFVIVGRHFEELEVDEIHSDEVKGGYLATRHLIERGRKNIIMISGYLFKSAAYMRLEGYRKALKEYGIPFSEKMIIETDIDIESGYRAMREAIEKGLEFEAVFCYNDLLAFGVIKALKECGYRIPEDVAVVGYDDIVYSSFICPSLTTVRIKKFEMGFEAFRMLLQRLKGRRKKRKRVILDVELVVRESG”, the “soluble on expression in E. coli” value was “not soluble”.
For “MGSDKIHHHHHHMKLPIKKAVEALLKLQTTGDSATLIGVGPMSRNLLQASFELAKEDDYPLMFIASRNQVDADELGGGYVNGWNQFSFIDAIKEVAKEVDFDGLYYVCRDHGGPWQRDQERNDHLPTEKAMELGKKSYIADIEAGFDLLMIDPTKDPFEVGKVIPLETVLERTVDLIAFCEEERKKRGLPEIGYEVGTEETNGGLTSTETYEKFITQLKVELEKRDLPLPTFIVGQTGTLTRKTEQVGHFNFKNAYDLAQMAKKYGVGLKEHNGDYLDDVTLLEHIPSEITATNVAPQYGTEETRAYLKLVELEQKLVENGLIKTPSNAREVLLIQSIKSERWRKWMLDGQKDITINEIMQDDDLSLEILDIAGHYTFNDAMVKKEINTLYANLAANNIDGKRFVIDHIKRPIRNYSECYNLKGATTRIKQLAK”, the “soluble on expression in E. coli” value was “not soluble”.
With “MGSDKIHHHHHHMKLRKQLAQQIVTSIKDVCQQDINFINTKGIIFASTNPKRVGEFHEIGLKVAQTGQMIEVTDQESYFGTQAGINIPFYYNCELLATIGISGNPNQVGKYALLAQKMTRLILKEHELDYLDFGRKNEASIVLHHLVEGRELDYYYLNQFLNQYHLSEKTDYRLLTFEINSQKQKLLLSQSEMSLLNFFDKLDTAIYTFNYPNQYWLLLSDHMFDYYYPNILSKFECEKGLYKVGIGQKSSLSLLKRSYETSILALKALKGQQKVNLVDDLDLELLLTSIDSNIKQYVLNKALVNLSENDKILLNSYFKHNLSLKECSQELFIHKNTVQYRLNKIYESTQLNPRNFKDATLLYLALKSEDINLHKL” the “soluble on expression in E. coli” value was “not soluble”.
In the case of “MGSDKIHHHHHHMKLVTISGPPSSGKTAVLAGVIRAMMASGLKVGALKYDCLATNDDDVFRAIGVPVQTGLSGNLCPDHYFVSNIEECLDWGIREGFDFLLSESAGLCNRCAPHIKGVLAVCVIDNLMGATTPKKIGPMLKYADIVVITKGDIVSQAEREVFAFQVRRANPRAKIMHVNGITGQGAGELASQFLLAPETTCLDGSRLRFSMPAALCSYCLGETRIGMEFQLGNVKKIKMSEEPAR”, the “soluble on expression in E. coli” value is reported as “not soluble”.
With “MGSDKIHHHHHHMKNIFVFGADEFNLSLMRSLDSAHEYCFHELYQYSEVKTGKEFPVETLYEGALARLNSYPDSVDAIVGYLDFPVSTMLPLLCQSLGLPSPSFEAVLKCEHKYWSRLEQRRVIPEYIPNFCSVDPFKDDYRQQITLDYPFWLKPVKAVLSHLGFMVRDDSELEMAIIEIRKKIYCFAKPFNYLLQFADLPDEIAAVDGYHCIAEGIISHGQQCTLEGYVFDGKLCVYGTVDSIREGEHGSSFSRYQYPSSIPQPIQDKMIAVTERFLTAIDFDNGPFNIEYYWDKDSDHIWLLEINTRISKSHSPLFRNVDGKSHHQIMLDLALGKQPIFPHRKGLYRYSAKFMWRTHADAQVNRVPTEQEIQAITQRIGGTDIQLHVREGMRLSDLNYQDSYSYEIATVFIGGDSEQELLQKYHDVQQALPLELVPLL” the “soluble on expression in E. coli” value was “not soluble”.
For “MGSDKIHHHHHHMKNLQVVEKEFSSLPIIDISALVSGKGNLYSAASQIRQACRESGFFYIIGHGVDENLQQRLEELSRQFFAQDLETKLKIRMALAGIAWRGYFPVGGELTSGKPDLKEGIYFGTELPDEHPLVQAGTPMHGANLFPANMPQFGETVLEYIEAMTKLGHTLMTGIAMSLGLEESYFADRYTSDPLVLFRIFNYPPNLSPSDGNPIWGVGEHTDYGVLTILKQDDSGGLQVKSKSGWVAAPPVPGSFVCNIGDMLDKMTGGFYRSTPHRVQNQSQNHRLSFPFFFDPNFDVEVKPIELDNYSSE”, the “soluble on expression in E. coli” value was “not soluble”.
With “MGSDKIHHHHHHMKNVLILSSSPRRGGNSDTLCDEFMQGAIESGHRVEKVFLRDKTIHPCTGCGVCSQYKKPCPQKDDAAEIIGKMLAADVIVMATPVYFYAMSAQMKTLIDRCCGPYTEMKNKEFYFIATAAEEDNGIMDRIVANFMGFLDCLENPTVKGTLFCGGVWHVGEIEGNPTLRQAYEQGKRV” the “soluble on expression in E. coli” value was “not soluble”.
With “MGSDKIHHHHHHMKPVVVMTQTNDMQSDLVSIIHKPFIDIKPLNFDIHLLNQRYDWLIFSSKNAVKFFYKYLKGINVDNIAVIGSKTAQYCESLGIRVDFMPNDFSQEGFLKSFNQTNQKILLPSSELARPLLLAALSKDNEVVKIDLYTSVPNKQNIQDVKEMIEHQQIDALTFSSSSAVRYYFNEGFVPKFKSYFAIGEQTARTIKTYQQPVTIAEIQTLESLIEKILESRG” the “soluble on expression in E. coli” value was “not soluble”.
With “MGSDKIHHHHHHMKQIYLLLLCGVLFACKKKESLPEVQKIGHSGMGLYGDYPINSFESLMQAFLLGADGVEIDVQMTRDGILVLLHDELLDNQTNGTGAVQERTWDEISNLAYDNIALGRYNIIRLDFLLENCGPHIDKLFYFDIKPNAYSTEHLYTLNRNLSTLITKFNLEDNSVLMYQNNAQFLHMLSLRTDLTIYSYSDFNTAKKNILQYKLNGWVASINDIDESKVAQMHEIGARVVGFSTFNKNDHLNLIHKGVDIIQTDNLKNLINLYQ” the “soluble on expression in E. coli” value was “not soluble”.
For “MGSDKIHHHHHHMKQTILDVDLLAFEQGTRFQQAAVVDGLMRSLGTGFVVTTSDLPSALLDEAYGMLNRFFALEATTKRQFNVPEAFGQTGYTDTLVETAAGEKLPDWKEMLNWAFPLPDNHPLRQRFPTLYPEQLLPEVAVPGITRVLQTFHQTIAELQCRVLRIIATGLGCHNDFFTDLVQDAPTLTRAIRYPPMSEAPAAGHMWAAAHGDINLITALPRATAPGLQVYIDGSWVDAIAPEGQVIVNSGLMLERISNGLIPTGWHRVLAPSQANLERLSVVQFCHPKPSTLLTPLSNCVNESHPQRFAGVMAADALEEVLYKIKLMA”, the “soluble on expression in E. coli” value was “not soluble”.
